Measurements: US20250034594A1, “RNA-GUIDED GENOME RECOMBINEERING AT KILOBASE SCALE” (THE BOARD OF TRUSTEES OF THE LELAND STANFORD JUNIOR …, priority 2021, published 2025)

B1: Homolog_T8: RecT, Shewanella putrefaciens; SEQ ID NO: 127 (protein, listed as Shewanella putrefaciens)
chain: MQTAQVKLSVPHQQVYQDNFNYLSSQVVGHLVDLNEEIGYLNQIVFNSLSTASPLDVAAPWSVYGLLLNVCRLGLSLNPEKKLAYVMPSWSETGEIIMKLYPGYRGEIAIASNFNVIKNANAVLVYENDHFRIQAATGEIEHFVTSLSIDPRVRGACSGGYCRSVLMDNTIQISYLSIEEMNAIAQNQIEANMGNTPWNSIWRTEMNRVALYRRAAKDWRQLIKATPEIQSALSDTEY
B2: Homolog_E8: RecE, Shewanella putrefaciens; SEQ ID NO: 128 (protein, listed as Shewanella putrefaciens)
chain: MGTALAQTISLDWQDTIQPAYTASGKPNFLNAQGEIVEGIYTDLPNSVYHALDAHSSTGIKTFAKGRHHYFRQYLSDVCRQRTKQQEYTFDAGTYGHMLVLEPENFHGNFMRNPVPDDFPDIELIESIPQLKAALAKSNLPVSGAKAALIERLYAFDPSLPLFEKMREKAITDYLDLRYAKYLRTDVELDEMATFYGIDTSQTREKKIEEILAISPSQPIWEKLISQHVIDHIVWDDAMRVERSTRAHPKADWLISDGYAELTIIARCPTTGLLLKVRFDWLRNDAIGVDFKTTLSTNPTKFGYQIKDLRYDLQQVFYCYVANLAGIPVKHFCFVATEYKDADNCETFELSHKKVIESTEEMFDLLDEFKEALTSGNWYGHDRSRSTWVIEV
B3: Homolog_T6: RecT, Providencia sp. MGF014; SEQ ID NO: 125 (protein, listed as Providencia sp.)
chain: MSNPPLAQSDLQKTQGTEVKVKTKDQQLIQFINQPSMKAQLAAALPRHMTPDRMIRIVTTEIRKTPALATCDMQSFVGAVVQCSQLGLEPGNALGHAYLLPFGNGKAKSGQSNVQLIIGYRGMIDLARRSNQIISISARTVRQGDNFHFEYGLNEDLTHTPSENEDSPITHVYAVARLKDGGVQFEVMTYNQVEKVRASSKAGQNGPWVSHWEEMAKKTVIRRLFKYLPVSIEMQKAVVLDEKAEANVDQENATIFEGEYEEVGTDGN
B4: Homolog_E7: RecE, Providencia alcalifaciens DSM 30120; SEQ ID NO: 144 (protein, listed as Providencia alcalifaciens)
chain: MNEGIYYDISNEDYHHGLGISKSQLDLIDESPADFIWHRDAPVDNEKTKALDFGTALHCLLLEPDEFQKRFRIAPEVNRRTNAGKEQEKEFLEMCEKENITPITNEDNRKLSLMKDSAMAHPIARWCLEAKGIAESSIYWKDKDTDILCRCRPDKLIEEHHWLVDVKSTADIQKFERSMYEYRYHVQDSFYSDGYKSLTGEMPVFVFLAVSTVINCGRYPVRVFVLDEQAKSVGRITYKQNLFTYAECLKTDEWAGIRTLSLPSWAKELKHEHTTAS
B5: Homolog_E9: RecE, Bacillus sp. MUM 116; SEQ ID NO: 130 (protein, listed as Bacillus sp.)
chain: MTYAADETLVQLLLSVDGKQLLLGRGLKKGKAQYYINEVPSKAKEFEEIRDQLFDKDLFMSLFNPSYFFTLHWEKQRAMMLKYVTAPVSKEVLKNLPEAQSEVLERYLKKHSLVDLEKIHKDNKNKQDKAYISAQSRTNTLKEQLMQLTEEKLDIDSIKAELAHIDMQVIELEKQMDTAFEKNQAFNLQAQIRNLQDKIEMSKERWPSLKNEVIEDTCRTCKRPLDEDSVEAVKADKDNRIAEYKAKHNSLVSQRNELKEQLNTIEYIDVTELREQIKELDESGQPLREQVRIYSQYQNLDTQVKSAEADENGILQDLKASIFILDSIKAFRGKEAEMQAEKVQALFTTLSVRLFKQNKGDGEIKPDFEIEMNDKPYRTLSLSEGIRAGLELRDVLSQQSELVTPTFVDNAESITSFKQPNGQLIISRVVAGQELKIEAVSE
B6: Homolog_T9: RecT, Bacillus sp. MUM 116; SEQ ID NO: 129 (protein, listed as Bacillus sp.)
chain: MSKQLTTVNTQAVVGTFSQAELDTLKQTIAKGTTNEQFALFVQTCANSRLNPFLNHIHCIVYNGKEGATMSLQIAVEGILYLARKTDGYKGIECQLIHENDEFKFDAKSKEVDHQIGFPRGNVIGGYAIAKREGFDDVVVLMESNEVDHMLKGRNGHMWRDWFNDMFKKHIMKRAAKLQYGIEIAEDETVSSGPSVDNIPEYKPQPRKDITPNQDVIDAPPQQPKQDDEAAKLKAARSEVSKKFKKLGIVKEDQTEYVEKHVPGFKGTLSDFIGLSQLLDLNIEAQEAQSADGDLLD
B7: Homolog_E6: RecE, Providencia sp. MGF014; SEQ ID NO: 126 (protein, listed as Providencia sp.)
chain: MKEGIYYNISNEDYHNGLGISKSQLDLINEMPAEYIWSKEAPVDEEKIKPLEIGTALHCLLLEPDEYHKRYKIGPDVNRRTNVGKEKEKEFFDMCEKEGITPITHDDNRKLMIMRDSALAHPIAKWCLEADGVSESSIYWTDKETDVLCRCRPDRIITAHNYIIDVKSSGDIEKFDYEYYNYRYHVQDAFYSDGYKEVTGITPTFLFLVVSTKIDCGKYPVRTYVMSEEAKSAGRTAYKHNLLTYAECLKTDEWAGIRTLSLPRWAKELRNE
B8: Homolog_T7: RecT, Providencia alcalifaciens DSM 30120; SEQ ID NO: 143 (protein, listed as Providencia alcalifaciens)
chain: MKAQLAAALPKHITSDRMIRIVSTEIRKTPSLANCDIQSFIGAVVQCSQLGLEPGNALGHAYLLPFGNGKSDNGKSNVQLIIGYRGMIDLARRSGQIISISARTVRQGDNFHFEYGLNENLTHIPEGNEDSPITHVYAVARLKDEGVQFEVMTYNQIEKVRDSSKAGKNGPWVTHWEEMAKKTVIRRLFKYLPVSIEMQKAVILDEKAEANIEQDHSAIFEAEFEEVDSNGN
B9: Homolog_T10: RecT, Shigella sonnei; SEQ ID NO: 131 (protein, listed as Shigella sonnei)
chain: MTKQPPIAKADLQKTQENRAPAAIKNNDVISFINQPSMKEQLAAALPRHMTAERMIRIATTEIRKVPALGNCDTMSFVSAIVQCSQLGLEPGSALGHAYLLPFGNKNEKSGKKNVQLIIGYRGMIDLARRSGQIASLSARVVREGDEFNFEFGLDEKLIHRPGENEDAPVTHVYAVARLKDGGTQFEVMTRRQIELVRSQSKAGNNGPWVTHWEEMAKKTAIRRLFKYLPVSIEIQRAVSMDEKEPLTIDPADSSVLTGEYSVIDNSEE

How the values were obtained:
DYNLT1 locus = assay: mKate knock-in gene-editing assay, RecE/RecT homologs, DYNLT1 locus; type: cell-based, human; conditions: HEK293 cells, MCP fusion, n=3
Procedure: (§1) Transfection HEK293T cells were seeded into 96-well plates (Corning) 12-24 hours prior to transfection at a density of 30,000 cells/well, and 250 ng of total DNA was transfected per well. HeLa and HepG2 cells were seeded into 48-well plates (Corning) one day prior to transfection at a density of 50,000 and 30,000 cells/well respectively, and 400 ng of total DNA was transfected per well. Transfections were performed with Lipofectamine 3000 (Life Technologies) following the manufacturer's instructions.
(§2) Fluorescence-activated cell sorting (FACS) mKate knock-in efficiency was analyzed on a CytoFLEX flow cytometer (Beckman Coulter; Stanford Stem Cell FACS Core). 72 hours after transfection, cells were washed once with PBS and dissociated with TrypLE Express Enzyme (Thermo Fisher Scientific). Cell suspension was then transferred to a 96-well U-bottom plate (Thermo Fisher Scientific) and centrifuged at 300×G for 5 minutes. After removing the supernatant, pelleted cells were resuspended with 50 μl 4% FBS in PBS, and cells were sorted within 30 minutes of preparation.
(§3) 15 different species of microbes having RecE/RecT proteins were selected for a screen of various RecE and RecT proteins across the microbial kingdom (Table 3). Each protein was codon-optimized and synthesized. As previously described for E. coli RecE/RecT based REDIT systems, each protein was fused via E-XTEN linker to the MCP protein with additional nuclear localization signal. mKate knock-in gene-editing assay was used to measure efficiencies at DYNLT1 locus (FIG. 26A, Table 4) and HSP90AA1 locus (FIG. 26B, Table 4).

HSP90AA1 locus = assay: mKate knock-in gene-editing assay, RecE/RecT homologs, HSP90AA1 locus; type: cell-based, human; conditions: HEK293 cells, MCP fusion, n=3
Procedure: as §1, §2, §3

| Molecule | Mean mKate+ (%), DYNLT1 (DYNLT1 locus) [%] | Mean mKate+ (%), HSP90AA1 (HSP90AA1 locus) [%] |
| --- | --- | --- |
| B1 | 5.0400 | 5.7133 |
| B2 | 4.6567 | 7.0533 |
| B3 | 9.0533 | 6.2500 |
| B4 | 4.4733 | 5.7367 |
| B5 | 5.3233 | 5.6900 |
| B6 | 8.1300 | 6.2000 |
| B7 | 5.4100 | 5.9300 |
| B8 | 5.6467 | 5.3700 |
| B9 | 8.5333 | 5.5900 |
